Experimental findings from US20170002081A1 are described below.

The target of test [1] is human CSF-1R, full length, on cells (human) (UniProt P07333). In words: displacement of 1.5 nM ^125I-H27K15 (competitor) on EL4-CSF-1R cells.
Test [2] has the same target. In words: displacement of ^125I-H27K15 on EL4-CSF-1R cells.
Test [3] has the same target. In words: displacement of 1.5 nM ^125I-H27K15 (competitor) on EL4-CSF-1R cells, Cheng-Prusoff.
Test [4] concerns the target CSF-1R20-512-Fc (R&D Systems cat. 329-MR) (human) (UniProt P07333). In words: competition ELISA with biotinylated CSF-1(1-444) on coated CSF-1R-Fc, saturation doses, pre-, co- or post-incubation. In general terms: In an ELISA, binding on a coated surface is turned into a signal by an enzyme label.
Test [5] has the same target. In words: competition ELISA, co-incubation: coated Fc-D1-D5 human CSF-1R, mAb and biotinylated CSF-1(1-444) together 1 hour; streptavidin-HRP.
The target is the same in test [6]. In words: competition ELISA, pre-incubation: coated Fc-D1-D5 human CSF-1R, mAb 1 hour, then biotinylated CSF-1(1-444) 1 hour; streptavidin-HRP.
Test [7] shares this target. In words: competition ELISA, post-incubation: coated Fc-D1-D5 human CSF-1R, biotinylated CSF-1(1-444) 1 hour, then mAb 1 hour; streptavidin-HRP.

“mAb JF14 (murine IgG1, Santa Cruz sc-80174) (antibody)” registered an IC50 in test [1] of 3.02 nM. Moreover, the figures for the Ki in test [2] and in test [3] were more than 1 nM and 1.78 nM, respectively.
In test [4], “mAb 3291 (murine IgG1, clone 61701, R&D Systems MAB3291) (antibody)” had a decrease of the CSF-1 binding to CSF-1R (%) of 30 to 40%. Also, the IC50 (read off the curve) in test [5] is 1 µg/mL; in test [6] it was 0.5 µg/mL; in test [7] it was 0.6 µg/mL. For the same substance, the IC50 in test [1] came out at 2.18 nM. The inhibition constant Ki was more than 1 nM in test [2] and 1.28 nM in test [3].

What is called IC50 is the concentration at which inhibition is half-maximal. The low end stands for higher potency, the high end for lower potency. By Ki is commonly meant a measure of affinity in units of concentration, obtained from inhibition or displacement. Higher therefore signals a looser hold on the target.
